Test results taken from US10293024 (dated 2019).
Blank lines part the entries; values can stand above or below the binder they belong to.

Columns and labels:
[1] = biological target: T1, MAP kinase p38α (OH-p38α, non-phosphorylated) (human); assay: other, biochemical kinase assay
[2] = biological target: 6His-MAP kinase p38α (human); assay: other, NMR titration 298K
[3] = biological target: T1, MAP kinase p38α (OH-p38α, …); assay: SPR, inhibition in solution

T1 sequence (chain, as listed by the source): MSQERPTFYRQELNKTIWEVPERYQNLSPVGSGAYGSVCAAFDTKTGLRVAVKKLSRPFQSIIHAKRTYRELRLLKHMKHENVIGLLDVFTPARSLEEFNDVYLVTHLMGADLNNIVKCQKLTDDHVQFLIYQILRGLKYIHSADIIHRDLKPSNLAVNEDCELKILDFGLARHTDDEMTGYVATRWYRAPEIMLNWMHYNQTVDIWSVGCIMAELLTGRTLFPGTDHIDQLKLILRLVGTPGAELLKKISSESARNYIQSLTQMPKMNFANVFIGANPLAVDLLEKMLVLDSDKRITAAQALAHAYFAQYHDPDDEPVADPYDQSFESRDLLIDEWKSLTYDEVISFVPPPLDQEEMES
Chain of 6His-MAP kinase p38α (human) (chain, as listed by the source): as above

- Ki [1]: 7 nM
- Kd [2]: < 1000 nM
- Kd [3]: 25 nM
B1: BB2702 (peptide)
chain: HKSRALLIFQKIMWLRRQ

- Kd [2]: ~250000 nM
B2: MEF2A peptide (peptide)
chain: RKPDLRVVIPPSS
